Square brackets hold non-standard residues; d marks the D form. Ends that are not written are not given here. pGlu = O=C1CC[C@@H](C(=O)O)N1
Tests used:
V1aR receptor (V1aR) = V1aR receptor (V1aR) (Homo sapiens, UniProt P37288); test: V1aR agonist activity of AVP fragments compared with AVP; details: no method or data given
[1] = system: aged rats and AD model rats
Description: The arginine vasopressin (AVP) concentration and AQP4 concentration in the brain are assayed with aged rats and AD model rats. Between placebo groups and intranasal AVP spray groups, the expression amount of AQP4 is assessed and simultaneously amyloid 3 (AB) proteins (and/or tau proteins) are assayed. The assays of AQP4 and AB are carried out with an immunofluorescent-antibody assay. The measured concentration of each of AB (and/or tau) is compared (throughout all the brain and each site) at each time point, i.e., prior to administration, at one week after administration, at one month after administration, and at three months after administration.
In this assay, the comparisons are carried out between the above groups and intravascularly AVP received groups.

Chain of V1aR receptor (V1aR) (P37288 whole entry, species assumed, the tested form may be a part): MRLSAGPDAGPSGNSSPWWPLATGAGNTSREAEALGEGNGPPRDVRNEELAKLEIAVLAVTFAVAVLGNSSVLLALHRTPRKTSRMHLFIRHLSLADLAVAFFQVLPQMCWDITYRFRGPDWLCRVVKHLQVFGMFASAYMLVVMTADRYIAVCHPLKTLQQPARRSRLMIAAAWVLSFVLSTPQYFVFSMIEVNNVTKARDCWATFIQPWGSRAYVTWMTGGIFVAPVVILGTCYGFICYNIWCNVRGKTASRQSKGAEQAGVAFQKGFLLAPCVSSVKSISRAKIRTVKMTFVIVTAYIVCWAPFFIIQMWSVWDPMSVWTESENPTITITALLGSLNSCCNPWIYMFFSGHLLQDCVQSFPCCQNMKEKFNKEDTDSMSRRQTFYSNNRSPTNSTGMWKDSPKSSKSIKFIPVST

| V1aR agonist activity relative to original AVP (V1aR receptor (V1aR)) | Substance | other results |
| --- | --- | --- |
| several-fold superior to original AVP | AVP (4-8): AVP fragment (QNCPR; Arg-vasopressin; UniProt P01185 23-27, looked up, fragment) |  |
| several-fold superior to original AVP | pGlu-Asn-Ser-Pro-Arg-Gly-NH2 acetate ([pGlu]NSPRG-NH2; also: acetate salt) [NC1900, AVP fragment] |  |
| several-fold superior to original AVP | AVP (5-9): AVP fragment (NCPRG; ends and bridges not checked; UniProt P01185 24-28, looked up, fragment) |  |
|  | 8-arginine-vasopressin [AVP] | correlation between the concentration of AVP in the brain and the expression amount of AQP4 ([1]; aged rats and AD model rats, intranasal AVP spray vs placebo, immunofluorescent-antibody assay): There is a correlation; correlation of brain AVP concentration and AQP4 expression with the amount of AB reduction ([1]; aged rats and AD model rats, prior to, one week, one month and three months after administration): correlate with the amount of AB reduction; effectiveness of intranasal AVP administration ([1]; compared with placebo groups and intravascularly AVP received groups): effective |
| several-fold superior to original AVP | AVP (5-8): AVP fragment (NCPR; Arg-vasopressin; UniProt P01185 24-27, looked up, fragment) |  |
| several-fold superior to original AVP | AVP (4-9): AVP fragment (QNCPRG; ends and bridges not checked; UniProt P01185 23-28, looked up, fragment) |  |
